The values below come from patent publication US20230365662A1.

Numbering of substitutions follows the chain as printed. In names and notes the source's numbering stands. Several values for one entry are separate records, joined by “and”; a condition that tells them apart may be missing. Identical values can stand only once.

B1: parental mouse (KB001) Fab FASEBA, VL variant Y97S (Fab, V domains shown)
VH: EVQLKQSGPGLVAPSQSLSITCTVSGFSLSIYSVHWVRQPPGKGLEWLGMIWGGGSSDYNSALKSRLSISKDNSKSQVFLKMNSLQTDDTAMYYCARNGNFYAMDYWGQGTSVTVSS
VL: QIVLTQSPAIMSASLGERVTMTCTASSSVSSSFLHWYQQKPGSSPQLWIYSTSNLASGVPARFSGSGSGTSYSLTISSMEAEDAATYYCHQYHHSPSIYTFGGGTKLEIK
B2: parental mouse (KB001) Fab FASEBA, VL variant Y97F (Fab, V domains shown)
VH: B1 VH
VL: B1 VL with S97F
B3: parental mouse (KB001) Fab FASEBA, VL variant Y97L (Fab, V domains shown)
VH: B1 VH
VL: B1 VL with S97L
B4: parental mouse (KB001) Fab FASEBA, VL variant Y97R (Fab, V domains shown)
VH: B1 VH
VL: B1 VL with S97R
B5: parental mouse (KB001) Fab FASEBA, VL variant I98R (Fab, V domains shown)
VH: B1 VH
VL: B1 VL with S97Y, I98R
B6: parental mouse (KB001) Fab FASEBA, VL variant I98V (Fab, V domains shown)
VH: B1 VH
VL: B1 VL with S97Y, I98V
B7: parental mouse (KB001) Fab FASEBA, VL variant T100P (Fab, V domains shown)
VH: B1 VH
VL: B1 VL with S97Y, T100P
B8: parental mouse (KB001) Fab FASEBA, VL variant Y97K (Fab, V domains shown)
VH: B1 VH
VL: B1 VL with S97K
B9: parental mouse (KB001) Fab FASEBA, VL variant Y97I (Fab, V domains shown)
VH: B1 VH
VL: B1 VL with S97I
B10: parental mouse (KB001) Fab FASEBA, VL variant Y97V (Fab, V domains shown)
VH: B1 VH
VL: B1 VL with S97V
B11: parental mouse (KB001) Fab FASEBA, VL variant I98M (Fab, V domains shown)
VH: B1 VH
VL: B1 VL with S97Y, I98M
B12: parental mouse (KB001) Fab FASEBA, VL variant T100I (Fab, V domains shown)
VH: B1 VH
VL: B1 VL with S97Y, T100I
B13: parental mouse (KB001) Fab FASEBA, VL variant I98L (Fab, V domains shown)
VH: B1 VH
VL: B1 VL with S97Y, I98L
B14: parental mouse (KB001) Fab FASEBA, VL variant T100V (Fab, V domains shown)
VH: B1 VH
VL: B1 VL with S97Y, T100V
B15: KB001 parental mouse Fab VH variant G99A (Fab, V domains shown)
VH: B1 VH with G99A
VL: B1 VL with S97Y
B16: KB001 parental mouse Fab VH variant G99C (Fab, V domains shown)
VH: B1 VH with G99C
VL: B1 VL with S97Y
B17: KB001 parental mouse Fab VH variant S65R (Fab, V domains shown)
VH: B1 VH with S65R
VL: B1 VL with S97Y
B18: KB001 parental mouse Fab VH variant K64M (Fab, V domains shown)
VH: B1 VH with K64M
VL: B1 VL with S97Y
B19: KB001 parental mouse Fab VH variant G99F (Fab, V domains shown)
VH: B1 VH with G99F
VL: B1 VL with S97Y
B20: KB001 parental mouse Fab VH variant G99N (Fab, V domains shown)
VH: B1 VH with G99N
VL: B1 VL with S97Y
B21: KB001 parental mouse Fab VH variant G99Y (Fab, V domains shown)
VH: B1 VH with G99Y
VL: B1 VL with S97Y
B22: KB001 parental mouse Fab VH variant S65P (Fab, V domains shown)
VH: B1 VH with S65P
VL: B1 VL with S97Y
B23: KB001 parental mouse Fab VH variant N100I (Fab, V domains shown)
VH: B1 VH with N100I
VL: B1 VL with S97Y
B24: KB001 parental mouse Fab VH variant K64D (Fab, V domains shown)
VH: B1 VH with K64D
VL: B1 VL with S97Y
B25: KB001 parental mouse Fab VH variant G99S (Fab, V domains shown)
VH: B1 VH with G99S
VL: B1 VL with S97Y
B26: KB001 parental mouse Fab VH variant K64E (Fab, V domains shown)
VH: B1 VH with K64E
VL: B1 VL with S97Y
B27: KB001 parental mouse Fab VH variant K64L (Fab, V domains shown)
VH: B1 VH with K64L
VL: B1 VL with S97Y
B28: KB001 parental mouse Fab VH variant K64Q (Fab, V domains shown)
VH: B1 VH with K64Q
VL: B1 VL with S97Y
B29: KB001 parental mouse Fab VH variant K64G (Fab, V domains shown)
VH: B1 VH with K64G
VL: B1 VL with S97Y
B30: KB001 parental mouse Fab VH variant S65F (Fab, V domains shown)
VH: B1 VH with S65F
VL: B1 VL with S97Y
B31: KB001 parental mouse Fab VH variant K64H (Fab, V domains shown)
VH: B1 VH with K64H
VL: B1 VL with S97Y
B32: KB001 parental mouse Fab VH variant N100P (Fab, V domains shown)
VH: B1 VH with N100P
VL: B1 VL with S97Y
B33: KB001 parental mouse Fab VH variant S65G (Fab, V domains shown)
VH: B1 VH with S65G
VL: B1 VL with S97Y
B34: KB001 parental mouse Fab VH variant S65T (Fab, V domains shown)
VH: B1 VH with S65T
VL: B1 VL with S97Y
B35: KB001 parental mouse Fab VH variant S65L (Fab, V domains shown)
VH: B1 VH with S65L
VL: B1 VL with S97Y
B36: KB001 parental mouse Fab VH variant S65Y (Fab, V domains shown)
VH: B1 VH with S65Y
VL: B1 VL with S97Y
B37: KB001 parental mouse Fab VH variant S65H (Fab, V domains shown)
VH: B1 VH with S65H
VL: B1 VL with S97Y

For one assay, the target named is HRgpA-6H (Porphyromonas gingivalis) (UniProt P28784). Description: ELISA, Fab FASEBA supernatant on coated HRgpA-6H. A general note: In an ELISA, binding on a coated surface is turned into a signal by an enzyme label.
UniProt P28784, sequence (P28784 228-991 limits assumed): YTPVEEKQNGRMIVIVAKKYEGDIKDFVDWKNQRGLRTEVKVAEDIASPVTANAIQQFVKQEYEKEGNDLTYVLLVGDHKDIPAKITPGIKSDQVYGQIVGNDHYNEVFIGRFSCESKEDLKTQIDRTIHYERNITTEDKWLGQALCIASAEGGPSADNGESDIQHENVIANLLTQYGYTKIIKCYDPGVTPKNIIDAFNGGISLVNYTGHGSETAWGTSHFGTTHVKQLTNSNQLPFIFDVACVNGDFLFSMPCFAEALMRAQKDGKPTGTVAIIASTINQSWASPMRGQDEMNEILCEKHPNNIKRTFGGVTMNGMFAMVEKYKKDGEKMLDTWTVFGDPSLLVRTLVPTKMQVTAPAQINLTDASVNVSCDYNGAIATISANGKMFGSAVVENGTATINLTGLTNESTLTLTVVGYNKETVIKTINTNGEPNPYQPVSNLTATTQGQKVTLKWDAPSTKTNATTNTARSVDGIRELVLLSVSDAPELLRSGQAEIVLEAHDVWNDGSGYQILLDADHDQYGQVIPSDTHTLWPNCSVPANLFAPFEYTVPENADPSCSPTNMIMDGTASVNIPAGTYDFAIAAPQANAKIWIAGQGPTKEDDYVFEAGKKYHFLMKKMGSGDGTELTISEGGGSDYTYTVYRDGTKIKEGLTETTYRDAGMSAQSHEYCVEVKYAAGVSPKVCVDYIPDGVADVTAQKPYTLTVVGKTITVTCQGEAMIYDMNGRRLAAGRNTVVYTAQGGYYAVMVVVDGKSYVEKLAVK
Turning to B1, the OD450nm was 0.633 OD450nm and the Ratio OD(Variant)/OD(WT) is 0.802 ratio to WT.
With B2, the OD450nm is 0.75 OD450nm and 0.756 OD450nm; the Ratio OD(Variant)/OD(WT) is 0.951 ratio to WT and 0.958 ratio to WT.
For the molecule B3, the OD450nm stood at 0.739 OD450nm and the Ratio OD(Variant)/OD(WT) was 0.937 ratio to WT.
For B4, in that order: 0.769 OD450nm and 0.975 ratio to WT.
For the molecule B5, the OD450nm is 0.726 OD450nm and 0.722 OD450nm; the Ratio OD(Variant)/OD(WT) was 0.83 ratio to WT and 0.825 ratio to WT.
For B6, the OD450nm was 0.832 OD450nm and 0.838 OD450nm and 0.787 OD450nm; the Ratio OD(Variant)/OD(WT) was 0.951 ratio to WT and 0.958 ratio to WT and 0.899 ratio to WT.
Take B7: the OD450nm worked out at 0.46 OD450nm and the Ratio OD(Variant)/OD(WT) was 0.879 ratio to WT.
For B8, in that order: 0.654 OD450nm and 0.829 ratio to WT.
As for B9, the OD450nm was 0.667 OD450nm and the Ratio OD(Variant)/OD(WT) is 0.845 ratio to WT.
Regarding B10, the OD450nm was 0.662 OD450nm and the Ratio OD(Variant)/OD(WT) was 0.839 ratio to WT.
Turning to B11, the OD450nm is 0.729 OD450nm and the Ratio OD(Variant)/OD(WT) was 0.833 ratio to WT.
Regarding B12, the OD450nm was 0.493 OD450nm and the Ratio OD(Variant)/OD(WT) is 0.942 ratio to WT.
On to B13, for which the OD450nm is 0.836 OD450nm and the Ratio OD(Variant)/OD(WT) is 0.955 ratio to WT.
In the case of B14, the OD450nm is 0.461 OD450nm and 0.428 OD450nm; the Ratio OD(Variant)/OD(WT) is 0.881 ratio to WT and 0.818 ratio to WT.

For the next assay the target is unchanged. Briefly: ELISA, Fab FASEBA supernatant on coated HRgpA-6H (0.0625 ug/ml).
On to B15, for which the OD450nm is 0.74 and the Ratio OD(Variant)/OD(WT) stood at 0.928.
For the molecule B16, the OD450nm was 0.776 and the Ratio OD(Variant)/OD(WT) was 0.974.
For B17, in that order: 0.794 and 0.96.
For B18, in that order: 0.784 and 0.948.
On to B19, for which the OD450nm amounted to 0.771 and the Ratio OD(Variant)/OD(WT) was found to be 0.967.
For B20, the OD450nm is 0.639 and 0.698; the Ratio OD(Variant)/OD(WT) is 0.802 and 0.876.
For the molecule B21, the OD450nm is 0.769 and the Ratio OD(Variant)/OD(WT) came out at 0.965.
Turning to B22, the OD450nm was 0.814 and the Ratio OD(Variant)/OD(WT) is 0.984.
As to B23, the OD450nm was 0.796 and 0.833; the Ratio OD(Variant)/OD(WT) was 0.94 and 0.983.
On to B24, for which the OD450nm worked out at 0.781 and the Ratio OD(Variant)/OD(WT) was found to be 0.944.
Consider B25, for which the OD450nm is 0.769 and 0.739 and 0.77; the Ratio OD(Variant)/OD(WT) is 0.965 and 0.927 and 0.966.
B26: the OD450nm was 0.789 and the Ratio OD(Variant)/OD(WT) came to 0.954.
For B27, the OD450nm amounted to 0.664 and the Ratio OD(Variant)/OD(WT) is 0.803.
Regarding B28, the OD450nm turned out to be 0.789 and the Ratio OD(Variant)/OD(WT) came out at 0.954.
Regarding B29, the OD450nm was found to be 0.811 and the Ratio OD(Variant)/OD(WT) was determined as 0.981.
As to B30, the OD450nm stood at 0.74 and the Ratio OD(Variant)/OD(WT) turned out to be 0.895.
Consider B31, for which the OD450nm is 0.788 and 0.806 and 0.73; the Ratio OD(Variant)/OD(WT) was 0.953 and 0.975 and 0.883.
Consider B32, for which the OD450nm amounted to 0.757 and the Ratio OD(Variant)/OD(WT) is 0.894.
As for B33, the OD450nm came to 0.825 and the Ratio OD(Variant)/OD(WT) is 0.998.
The like results for B34 were, in that order, 0.759 and 0.918.
Consider B35, for which the OD450nm was found to be 0.728 and the Ratio OD(Variant)/OD(WT) was determined as 0.88.
Regarding B36, the OD450nm stood at 0.724 and the Ratio OD(Variant)/OD(WT) worked out at 0.875.
As to B37, the OD450nm was 0.823 and 0.767; the Ratio OD(Variant)/OD(WT) is 0.995 and 0.927.
